# Molecular target: GST-gc-p300/CH1 fusion protein (CH1 domain of grass carp p300) (grass carp (Ctenopharyngodon idella))
"gcHIF-1-mediated transactivation of HRE-luciferase activity in CHO cells, change in the presence of gcCITED3a","gcHIF-1-mediated transactivation of HRE-luciferase activity in CHO cells, change in the presence of gcCITED3b",Substance
-40%,–,"gcCITED3a (grass carp CITED3a), in vitro translated (natural protein)"
–,-40%,"gcCITED3b (grass carp CITED3b), in vitro translated (natural protein)"

# Reference: paper PMC2780419
